Results on five molecules are retold here after PMC4694823, “Tumorigenesis by Meis1 overexpression is accompanied by a change of DNA target-sequence specificity which allows binding to the AP-1 element”.

For data set [1], the target named is T1, Meis1;Pbx1 (mouse?;mouse?, UniProt Q60954;P41778 1-390;1-308, |).
T1 sequence 1: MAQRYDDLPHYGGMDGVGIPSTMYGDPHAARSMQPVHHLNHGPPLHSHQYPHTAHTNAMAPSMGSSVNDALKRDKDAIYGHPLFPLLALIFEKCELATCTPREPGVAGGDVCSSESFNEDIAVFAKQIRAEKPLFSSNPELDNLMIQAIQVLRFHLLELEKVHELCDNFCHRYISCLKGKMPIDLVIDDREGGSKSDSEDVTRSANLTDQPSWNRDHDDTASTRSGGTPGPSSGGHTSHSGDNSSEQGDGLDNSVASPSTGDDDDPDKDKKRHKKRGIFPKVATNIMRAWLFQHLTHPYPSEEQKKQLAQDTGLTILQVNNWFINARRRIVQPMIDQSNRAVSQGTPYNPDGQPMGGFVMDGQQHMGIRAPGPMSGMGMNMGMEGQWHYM
T1 sequence 2: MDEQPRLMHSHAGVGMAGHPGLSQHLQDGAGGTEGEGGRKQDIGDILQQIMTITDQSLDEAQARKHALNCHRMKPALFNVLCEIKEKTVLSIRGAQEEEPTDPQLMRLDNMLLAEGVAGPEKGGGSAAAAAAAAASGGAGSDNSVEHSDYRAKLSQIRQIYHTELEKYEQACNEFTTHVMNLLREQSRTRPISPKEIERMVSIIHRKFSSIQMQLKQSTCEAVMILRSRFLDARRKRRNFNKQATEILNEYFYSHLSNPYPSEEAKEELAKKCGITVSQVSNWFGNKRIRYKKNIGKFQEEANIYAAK
The experiment in a line: EMSA; binds at lower protein:DNA ratio than AP1; 15 uL reactions with 5% glycerol, 1 ug poly-dIdC, 1.3 uM ds oligo, 12 ug Meis1/Pbx1 or 7 ug Prep1/Pbx1; 30 min on ice; 5-15% native PAGE, GelRed stain; buffer. As to conditions: protein: recombinant;recombinant; tags: GST fusion from modified pGEX6p-2rbs; copies: 1;1; blunt. A general note: A gel shift assay detects complexes by their altered migration in electrophoresis.

A further data set deals with c-Fos;c-Jun (;, UniProt P01100;P05412 1-380;1-331, |). The experiment in a line: EMSA; 15 uL reactions with 5% glycerol, 1 ug poly-dIdC, 1.3 uM ds oligo, 12 ug Meis1/Pbx1 or 7 ug Prep1/Pbx1; 30 min on ice; 5-15% native PAGE, GelRed stain; buffer. As to conditions: protein: commercial;commercial; tags: ;; copies: 1;1; blunt.
Data set [2] concerns the target T1, Meis1;Pbx1. As to the kind of experiment: EMSA; needs higher protein:DNA ratio than OCTA; 15 uL reactions with 5% glycerol, 1 ug poly-dIdC, 1.3 uM ds oligo, 12 ug Meis1/Pbx1 or 7 ug Prep1/Pbx1; 30 min on ice; 5-15% native PAGE, GelRed stain; buffer. As to conditions: protein: recombinant;recombinant; tags: GST fusion from modified pGEX6p-2rbs; copies: 1;1; blunt.

Data set [3] addresses T2, Prep1 (pKnox1);Pbx1 (mouse?;mouse?, UniProt O70477;P41778 1-344;1-308, |).
T2 sequence 1: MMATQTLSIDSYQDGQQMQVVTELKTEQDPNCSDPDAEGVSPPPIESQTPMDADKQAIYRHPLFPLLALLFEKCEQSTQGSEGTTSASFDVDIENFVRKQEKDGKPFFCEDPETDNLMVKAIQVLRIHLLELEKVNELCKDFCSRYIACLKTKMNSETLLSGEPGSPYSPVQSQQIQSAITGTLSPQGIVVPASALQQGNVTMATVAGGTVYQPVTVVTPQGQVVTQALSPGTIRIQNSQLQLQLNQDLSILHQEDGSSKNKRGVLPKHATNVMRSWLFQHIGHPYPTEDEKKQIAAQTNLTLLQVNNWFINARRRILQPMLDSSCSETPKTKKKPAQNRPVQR
T2 sequence 2: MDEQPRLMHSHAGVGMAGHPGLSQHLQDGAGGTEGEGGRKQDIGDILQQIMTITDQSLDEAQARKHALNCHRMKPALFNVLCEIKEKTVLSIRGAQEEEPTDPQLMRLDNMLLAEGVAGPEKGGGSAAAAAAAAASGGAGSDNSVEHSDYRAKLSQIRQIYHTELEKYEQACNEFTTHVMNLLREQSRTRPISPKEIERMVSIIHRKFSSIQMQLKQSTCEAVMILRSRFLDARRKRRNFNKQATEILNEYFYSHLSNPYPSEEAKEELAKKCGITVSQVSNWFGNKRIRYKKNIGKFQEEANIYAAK
As to the kind of experiment: EMSA; binds also at low protein:DNA ratio; AP1 oligo taken as the only printed single AP1 oligo; 15 uL reactions with 5% glycerol, 1 ug poly-dIdC, 1.3 uM ds oligo, 12 ug Meis1/Pbx1 or 7 ug Prep1/Pbx1; 30 min on ice; 5-15% native PAGE, GelRed stain; buffer. As to conditions: protein: recombinant;recombinant; tags: GST fusion from modified pGEX6p-2rbs; copies: 1;1; blunt.

Data set [4] addresses T2, Prep1 (pKnox1);Pbx1. The experiment in a line: EMSA; 15 uL reactions with 5% glycerol, 1 ug poly-dIdC, 1.3 uM ds oligo, 12 ug Meis1/Pbx1 or 7 ug Prep1/Pbx1; 30 min on ice; 5-15% native PAGE, GelRed stain; buffer. As to conditions: protein: recombinant;recombinant; tags: GST fusion from modified pGEX6p-2rbs; copies: 1;1; blunt.
Data set [5] addresses T1, Meis1;Pbx1. The data set is described as above. As to conditions: protein: recombinant;recombinant; tags: GST fusion from modified pGEX6p-2rbs; copies: 1;1; blunt.

Sequence of c-Fos;c-Jun (P01100 whole entry, chain 1 of 2, the tested form may be a part): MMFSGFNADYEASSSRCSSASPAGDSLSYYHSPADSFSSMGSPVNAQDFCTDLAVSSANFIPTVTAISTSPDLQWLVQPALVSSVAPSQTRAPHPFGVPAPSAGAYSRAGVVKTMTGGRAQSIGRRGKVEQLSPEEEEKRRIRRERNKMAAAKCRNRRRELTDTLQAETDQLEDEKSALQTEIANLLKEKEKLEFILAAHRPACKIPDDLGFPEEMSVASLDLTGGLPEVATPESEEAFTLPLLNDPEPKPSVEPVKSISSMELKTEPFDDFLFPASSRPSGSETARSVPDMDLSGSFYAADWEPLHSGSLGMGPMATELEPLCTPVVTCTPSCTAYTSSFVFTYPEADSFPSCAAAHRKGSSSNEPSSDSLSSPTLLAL
Sequence of c-Fos;c-Jun (P05412 whole entry, chain 2 of 2, the tested form may be a part): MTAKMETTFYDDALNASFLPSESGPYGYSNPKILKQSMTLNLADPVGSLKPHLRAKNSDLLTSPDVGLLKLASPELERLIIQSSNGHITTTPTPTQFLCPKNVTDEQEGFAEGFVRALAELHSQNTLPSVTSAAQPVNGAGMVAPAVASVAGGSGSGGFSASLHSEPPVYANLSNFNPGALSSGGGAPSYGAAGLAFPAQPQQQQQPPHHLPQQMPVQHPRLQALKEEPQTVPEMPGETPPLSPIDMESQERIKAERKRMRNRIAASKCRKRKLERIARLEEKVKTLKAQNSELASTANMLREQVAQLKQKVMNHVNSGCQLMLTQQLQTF

B1: OCTA (dsDNA)
DNA 1: GAAAGTGATAAATAATACAAGGAAAGC
DNA 2: GCTTTCCTTGTATTATTTATCACTTTC
With B1, in the data set with Meis1;Pbx1 [1], the binding result is “binds”.

B2: AP1 (dsDNA)
DNA 1: CATTACCATGAGTCATTGGGCTTGCTC
DNA 2: GAGCAAGCCCAATGACTCATGGTAATG
Regarding B2, the binding result with c-Fos;c-Jun, with Meis1;Pbx1 [2] and with Prep1 (pKnox1);Pbx1 [3] was “binds” in each case.

B3: AP1+DECA (dsDNA)
DNA 1: TAAAATGCTGAGTCACTGACTGACAGCTTTAGGCT
DNA 2: AGCCTAAAGCTGTCAGTCAGTGACTCAGCATTTTA
With B3, in the data set with Prep1 (pKnox1);Pbx1 [4], the binding result is on record as “binds”.

B4: DECA (dsDNA)
DNA 1: AGCTGACCTCTGAGTGACAGGGTGGAATGTGA
DNA 2: TCACATTCCACCCTGTCACTCAGAGGTCAGCT
For the molecule B4, the binding result with Prep1 (pKnox1);Pbx1 [4] is listed as “binds”.

B5: OCTA+AP1 (dsDNA)
DNA 1: ATTATAGTGATGAATCATCATGACTCATGGTCCAG
DNA 2: CTGGACCATGAGTCATGATGATTCATCACTATAAT
For B5, in the data set with Meis1;Pbx1 [5], the binding result is “binds”.
